Measurements as given in IntAct's records for PubMed 23274085.

B1: Sestrin-2 (Homo sapiens), P58004 (parent)
chain: MIVADSECRAELKDYLRFAPGGVGDSGPGEEQRESRARRGPRGPSAFIPVEEVLREGAESLEQHLGLEALMSSGRVDNLAVVMGLHPDYFTSFWRLHYLLLHTDGPLASSWRHYIAIMAAARHQCSYLVGSHMAEFLQTGGDPEWLLGLHRAPEKLRKLSEINKLLAHRPWLITKEHIQALLKTGEHTWSLAELIQALVLLTHCHSLSSFVFGCGILPEGDADGSPAPQAPTPPSEQSSPPSRDPLNNSGGFESARDVEALMERMQQLQESLLRDEGTSQEEMESRFELEKSESLLVTPSADILEPSPHPDMLCFVEDPTFGYEDFTRRGAQAPPTFRAQDYTWEDHGYSLIQRLYPEGGQLLDEKFQAAYSLTYNTIAMHSGVDTSVLRRAIWNYIHCVFGIRYDDYDYGEVNQLLERNLKVYIKTVACYPEKTTRRMYNLFWRHFRHSEKVHVNLLLLEARMQAALLYALRAITRYMT

Variants of: B1
Settings: with keap1_human KEAP1, Q14145
Chain of keap1_human KEAP1, Q14145 (Q14145 whole entry): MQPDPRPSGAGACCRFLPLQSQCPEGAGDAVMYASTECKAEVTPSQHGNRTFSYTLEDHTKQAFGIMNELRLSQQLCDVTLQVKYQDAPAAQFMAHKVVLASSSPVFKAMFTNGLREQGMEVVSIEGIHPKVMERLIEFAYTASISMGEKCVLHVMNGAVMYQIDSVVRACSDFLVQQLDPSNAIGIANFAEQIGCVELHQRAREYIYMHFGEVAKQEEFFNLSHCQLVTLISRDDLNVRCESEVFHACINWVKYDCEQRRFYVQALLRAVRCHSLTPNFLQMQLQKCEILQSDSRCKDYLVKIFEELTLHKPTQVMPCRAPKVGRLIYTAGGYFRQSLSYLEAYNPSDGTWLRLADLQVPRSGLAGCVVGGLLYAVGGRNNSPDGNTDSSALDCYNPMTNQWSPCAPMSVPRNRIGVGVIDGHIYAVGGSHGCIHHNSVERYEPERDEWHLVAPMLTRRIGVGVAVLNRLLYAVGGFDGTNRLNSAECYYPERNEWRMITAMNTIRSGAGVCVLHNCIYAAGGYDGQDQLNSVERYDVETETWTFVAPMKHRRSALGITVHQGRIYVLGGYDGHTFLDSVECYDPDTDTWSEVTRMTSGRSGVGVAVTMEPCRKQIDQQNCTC

effect of a mutation on the interaction | Variant
with no effect | C125S
